# Data published in patent publication US8076087B2, “Galectin sequences and compositions and methods utilizing same for treating or diagnosing arthritis and other chronic inflammatory diseases” (Medical Research Fund of Tel Aviv Souraskv Medical Center, priority 2002, dated 2011).
# B1: galectin-8 variant 1: recombinant galectin-8 variant 1 polypeptide, SEQ ID NO: 6, isoform found in synovial fluid cells of arthritic patients (protein)
# chain: MMLSLNNLQNIIYNPDLQSTQASSLELTEISRENVPKSGTPQLPSNRGGDISKIAPRTVYTKSKEARQSHFDLHENTTYELCVKSLPFAARLNTPMGPGRTVVVKGEVNANAKSFNVDLLAGKSKDIALHLNPRLNIKAFVRNSFLQESWGEEERNITSFPFSPGMYFEMIIYCDVREFKVAVNGVHSLEYKHRFKELSSIDTLEINGDIHLLEVRSW
# Columns and labels:
# IL-1ra = IL-1ra levels in media of LPS-supplemented human synovial tissue / cell cultures, sandwich enzyme immunoassay; format: cell-based; details: LPS 3 μg/ml, 50-2000 ng/ml, 48 hours
# Experimental: Specimen Selection and Culture Conditions: Synovial tissues were obtained from patients undergoing total knee or hip replacement for osteoarthritis (OA). Within 2 hours of removal, synovial tissues were cut into small pieces, of a few millimeters in diameter. Synovial fibroblasts were cultured in 2 ml RPMI 1640 supplemented with 2 mM L-glutamine, 100 U/ml penicillin and 100 μg/ml streptomycin sulphate (Biological Industries).
# (§1) Inflammatory cells and PBLs derived from joints of rheumatoid arthritic (RA) patients were cultured individually [RPMI-1640 (Sigma, Israel)]. The murine fibroblast line, NIH 3T3, was used as a control. The recombinant galectin-8 peptide (r-galectin-8) was added to the culture medium of the synovial fibroblasts at a concentration of 0.125 μM, 0.25 μM, 0.5 μM and 1 μM) together with lipopolysaccharide (LPS, 3 μg/ml). The recombinant galectin-8 peptide variants (r-galectin-8 variant 1 and r-galectin-8 variant 2) were added to all the culture mediums in the following concentrations: 50 ng/ml, 125 ng/ml, 250 ng/ml, 500 ng/ml, 750 ng/ml, 1 μg/ml and 2 μg/ml together with lipopolysaccharide (LPS, 3 μg/ml). Following 48 hours of incubation (37° C., 5% CO2), the measurement of IL-1β, TNF-α and IL-1ra production was performed in supernatants by quantitative sandwich enzyme immunoassay technique (R&D Systems, Inc., USA). Detection limits were 1 pg/ml to 14 pg/ml. IL-1ra production was tested with and without the addition of lipopolysaccharide (LPS, 3 μg/ml) to the culture media.
# TNFα = TNFα levels in media of NIH 3T3 fibroblasts (negative control cells); format: cell-based, murine; details: LPS 3 μg/ml, 50-2000 ng/ml, 48 hours
# Experimental: as §1
# [1] = tested on: human fibroblasts from OA patients; test: Apoptosis induction, annexin V/PI flow cytometry, OA fibroblasts; format: cell-based; details: for total cell population in the apoptotic area: 24 h, no-addition control 39.5%
# Experimental: The assay was performed by Phosphatidyl Serine Detection Kit (IOP-116F FITC-conjugated, IQ Products, The Netherlands) using the manufacturer instructions. Human fibroblast cells from OA patients, synovial fluid cells and PBLs from RA and other arthritic patients were incubated with increasing concentrations of galectin-8 variants 1 and 2 (50-2000 ng/ml). Specific binding of annexin V was performed by the incubation of cells for 20 minutes on ice in a binding calcium buffer containing a saturating concentration of annexin V-fluorescein isothiocyanate (FITC) and propdium iodide (PI). After incubation, the cells were pelleted, and analyzed in FACS analyzer (Beckton Dickinson, San Jose, Calif.). Annexin V^+/PI^+ cells were defined as necrotic, while annexin V^+/PI^− cells were defined as apoptotic. The percent of the apoptotic cells of the total cells was determined.
# [2] = tested on: collagen induced arthritis (CIA); test: Collagen-induced arthritis (CIA) in DBA/1 mice, footpad thickness; format: in vivo; details: 100 μg per injection
# Description: Animal treatment: 44 DBA/1 mice were induced with a joint inflammatory disease by two subcutaneous (s.c.) injections into the base of the tail of type II collagen three weeks apart. Joint inflammation, which appears several days after the last collagen injection, causes enhanced marked foot pad swelling, as well as swelling of other joints. The diameter of nonarthritic footpads is 1.5 to 1.7 mm. A footpad diameter of 1.9 to 2.0 mm was arbitrarily set as disease onset. […] Human galectin-8 protein and variants (100 μg per injection) as well as control injections were injected IP at disease onset and then every day for 11 days. The 44 mice were divided into 5 experimental groups as follows: Group 1 (negative control): systemic injection (starting at CIA onset) of PBS or PBS+30% glycerol (storing dilution solution of galectin proteins) (10 mice). Group 2 (positive control): systemic injection (starting at CIA onset) of anti-mouse TNFα mAb (cat. no. AMC-3012, Biosource Int. Inc. USA) adhering to the standard protocol (i.e., 100 μg antibody/mouse every day for 11 days) (6 mice). Group 3 (positive control): systemic injection of human galectin-8 protein according to the standard protocol (10 mice). Group 4: systemic injection of 100 μg per dose of human galectin-8 variant 1 according to the standard protocol (10 mice). Group 5: systemic injection of 100 μg per dose of human galectin-8 variant 2 (8 mice). The effect on footpad thickness was determined in a “blind” fashion, recording the electronic microcaliper measurements of the thickness of the joints, by picking the animals at random and recording their ears' signs following measurement. The mice were bled prior to disease induction, following disease onset and upon termination of the experiment (approximately day 11). The sera were stored and later analyzed for the presence of rheumatoid factor (RF) and cytokines. The mice were killed upon termination of the experiment and the joints removed from some of the animals for histopathological examination.
molecule,measurement,setting,value
B1,IL-1ra levels in media,IL-1ra; PBLs of RA patients,significantly and dose-dependently increased
same,IL-1ra levels in media,"IL-1ra; PBLs of RA patients, listed as galectin-8 var. 1",decrease
same,IL-1ra levels in media,IL-1ra; human fibroblasts from OA patients,significantly and dose-dependently increased
same,IL-1ra levels in media,"IL-1ra; human fibroblasts from OA patients, listed as galectin-8 var. 1",decrease
same,IL-1ra levels in media,IL-1ra; synovial fluid cells (SFCs),significantly and dose-dependently increased
same,IL-1ra levels in media,"IL-1ra; synovial fluid cells (SFCs), listed as galectin-8 var. 1",decrease
same,TNFα levels in media,TNFα,No effect
same,TNFα levels in media,TNFα; listed as galectin-8 var. 1,remain unaffected
same,total cell population in the apoptotic area,[1]; 50 ng/ml,32.5%
same,total cell population in the apoptotic area,[1]; 125 ng/ml,47.5%
same,total cell population in the apoptotic area,[1]; 250 ng/ml,48.4%
same,total cell population in the apoptotic area,[1]; 500 ng/ml,55.5%
same,total cell population in the apoptotic area,[1]; 750 ng/ml,58.5%
same,total cell population in the apoptotic area,[1]; 1000 ng/ml,77%
same,total cell population in the apoptotic area,[1]; 2000 ng/ml,77%
same,percentage of apoptotic cells,[1]; increasing concentrations (50-2000 ng/ml),gradually increased
same,CIA manifestations (footpad swelling),"[2]; IP / systemic, from disease onset every day for 11 days",substantially reduced
same,"alleviating the swelling in the footpad, compared with positive controls",[2]; every day for 11 days,at least as effective as anti-TNFα mAb and the human galectin-8 recombinant peptide
